Data set [1] relates to metastatic colorectal cancer. Conditions: unconjugated antibody, early phase II trial; cited from earlier work.
Data set [2] concerns the target T1, FAP (Homo sapiens, UniProt Q12884).
T1 sequence (Q12884 1-760): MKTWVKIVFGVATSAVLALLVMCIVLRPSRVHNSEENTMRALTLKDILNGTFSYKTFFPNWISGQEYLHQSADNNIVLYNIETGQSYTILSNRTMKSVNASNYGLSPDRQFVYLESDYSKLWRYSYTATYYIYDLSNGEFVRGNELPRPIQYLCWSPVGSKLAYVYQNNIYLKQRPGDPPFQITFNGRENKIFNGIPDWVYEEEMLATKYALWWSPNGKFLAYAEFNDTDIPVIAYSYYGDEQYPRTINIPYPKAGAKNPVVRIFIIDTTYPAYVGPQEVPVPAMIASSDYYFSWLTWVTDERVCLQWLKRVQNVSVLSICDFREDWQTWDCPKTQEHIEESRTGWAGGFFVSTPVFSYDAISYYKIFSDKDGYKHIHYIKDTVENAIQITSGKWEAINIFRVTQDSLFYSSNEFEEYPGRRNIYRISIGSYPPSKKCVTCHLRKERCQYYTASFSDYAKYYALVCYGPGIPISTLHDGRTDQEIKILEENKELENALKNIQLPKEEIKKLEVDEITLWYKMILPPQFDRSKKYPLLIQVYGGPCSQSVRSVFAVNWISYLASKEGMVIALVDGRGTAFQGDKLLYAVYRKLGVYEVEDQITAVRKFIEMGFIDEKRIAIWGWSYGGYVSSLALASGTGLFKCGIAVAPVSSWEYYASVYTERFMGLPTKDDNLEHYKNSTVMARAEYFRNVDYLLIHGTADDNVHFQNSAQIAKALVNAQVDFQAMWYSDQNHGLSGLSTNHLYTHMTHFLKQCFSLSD
To be noted: cited from earlier work.

For data set [3] the following is noted: human, in vivo; cited from earlier work.
Data set [4] has as its target T2, captured FAP (sFAP) (Homo sapiens, UniProt Q12884).
T2 sequence (Q12884 1-760): T1 sequence (Q12884 1-760)
The data set is described as follows: Capture ELISA, FAP captured via his-tag with coated anti-His antibody. Format: binding. To be noted: non-linear regression. How it is done:
(§1) ELISA assays were performed with varying antibody concentrations to validate the binding of the exemplary antibodies of the present invention to FAP and to be able to determine their half maximal effective concentration (EC50). For the exemplary recombinant human NI-206.82C2, NI-206.59B4, NI-206.22F7, NI-206.27E8, NI-206.12G4 and NI-206.17A6 antibodies, 96-well microplates (Costar, Corning, USA) were coated with FAP, with a mixture of the 3 peptides or with BSA (Sigma-Aldrich, Buchs, Switzerland) diluted to a concentration of 5 μg/ml in carbonate ELISA coating buffer (15 mM Na2CO3, 35 mM NaHCO3, pH 9.4) for the direct ELISA. For the capture ELISA, the microplates were coated with mouse anti-His monoclonal antibody (Clontech) diluted to a concentration of 3 μg/ml in PBS, the plates were then blocked, FAP or BSA were diluted to a concentration of 2 μg/ml in PBS and added to the plates to be captured. The binding efficiency of the antibodies was then tested. The exemplary NI-206.82C2 antibody specifically and strongly binds to the captured FAP and less efficiently to the directly coated FAP. The exemplary NI-206.59B4 antibody specifically, strongly and similarly binds to the captured FAP and to the directly coated FAP.
(§2) The EC50 values were estimated by a non-linear regression using GraphPad Prism (San Diego, USA) software. […] The binding of NI-206.12G4 towards sFAP was not tested.
(An ELISA detects its analyte on a solid surface through an enzyme-linked reagent.)

For data set [5], the target named is T3, directly coated FAP (FAP) (Homo sapiens, UniProt Q12884).
T3 sequence (Q12884 1-760): T1 sequence (Q12884 1-760)
Put plainly: Direct ELISA, FAP directly coated. In kind it is binding. To be noted: non-linear regression. On the procedure:
as §1, §2

For “Sibrotuzumab: a humanized version of the F19 antibody that specifically binds to human FAP”, the “efficacy in inhibiting tumor progression” value in data set [1] is reported as “lack of efficacy”. Moreover, in data set [2], the “inhibition of FAP” value was “not inhibitory”. Besides, the “patients with a change in pharmacokinetics and reduced tumor uptake” value in data set [3] is 4 of 26.

B1: NI-206.22F7: recombinant human-derived monoclonal anti-FAP antibody, variable regions in FIG. 1 (antibody, V domains shown)
VH: EVQLVETGGGVVQPGRSLRLSCAASGFSFSTHGMYWVRQPPGKGLEWVAVISYDGSDKKYADSVKGRFTISRDNSKNTVYLEMSSVRAEDTALYYCFCRRDAFDLWGQGTMVTVSS
VL: SYVLTQPPSVSVSPGQTARITCSGDALPKKYAYWYQQKSGQAPVLVIYEDTKRPSGIPERFSGSSSGTMATLTISGAQVEDEADYYCYSTDSSGNYWVFGGGTEVTVL
On to B1, for which, in data set [4], the “EC50, binding to captured FAP (sFAP)” value is “did not show any binding”. Besides, the “EC50, binding to directly coated FAP (FAP)” value in data set [5] is “did not show any binding”.

(Values after US20170369592A1, “NOVEL ANTI-FIBROBLAST ACTIVATION PROTEIN (FAP) ANTIBODIES AND USES DERIVED THEREOF” (Mabimmune Diagnostics AG, priority 2015, published 2017).)
